Data published in patent publication US7314709B2, “Compositions and methods for detecting and quantifying COX-2 activity by lipoamino acid metabolism” (Vanderbilt University, priority 2002, dated 2008).

Tests used:
[1] = mice [16,17]; cited from earlier work
[2] = rats [16,17]; cited from earlier work
ovine COX-1 (oCOX-1) = target: T1, ovine COX-1 (oCOX-1) (Ovis aries, UniProt P05979); settings: compared with AA; cited from earlier work
T1 construct: COX-1 was purified from ram seminal vesicles as previously described; tissue Oxford Biomedical Research; host or cells: ram seminal vesicles
T1 sequence (P05979 25-600): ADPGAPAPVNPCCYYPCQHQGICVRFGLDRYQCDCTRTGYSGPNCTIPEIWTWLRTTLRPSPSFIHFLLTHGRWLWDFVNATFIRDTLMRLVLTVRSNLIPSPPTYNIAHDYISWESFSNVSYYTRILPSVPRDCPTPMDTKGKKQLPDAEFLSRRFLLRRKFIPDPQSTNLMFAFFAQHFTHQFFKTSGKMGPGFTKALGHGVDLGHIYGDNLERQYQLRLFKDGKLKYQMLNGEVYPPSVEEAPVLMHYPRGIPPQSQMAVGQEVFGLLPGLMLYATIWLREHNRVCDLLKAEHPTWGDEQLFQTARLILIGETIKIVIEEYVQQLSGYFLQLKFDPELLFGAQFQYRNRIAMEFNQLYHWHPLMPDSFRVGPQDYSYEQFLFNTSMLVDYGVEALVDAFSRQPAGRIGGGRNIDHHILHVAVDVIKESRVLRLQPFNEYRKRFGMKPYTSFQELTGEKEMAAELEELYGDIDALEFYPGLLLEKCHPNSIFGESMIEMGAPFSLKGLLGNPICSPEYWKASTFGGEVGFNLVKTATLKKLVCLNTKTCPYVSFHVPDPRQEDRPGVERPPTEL

[3] = substrate: CCCCC/C=C\C/C=C\C/C=C\C/C=C\CCCCNCC(=O)O; test: Steady-state kinetics of COX-2 mediated oxygenation (oxygraph O2 uptake); assay type: biochemical, murine; settings: other: 50 nM COX-2, 100 mM Tris-HCl, 500 μM phenol
Protocol: (§1) Enzymology: COX-1 was purified from ram seminal vesicles as previously described. Site-directed mutagenesis of COX-2 was performed as described previously. Recombinant COX-2 enzymes were expressed in Sf-9 insect cells and purified by ion-exchange chromatography and gel filtration as previously described. Apo-enzymes were reconstituted with hematin prior to activity assays. […] COX activity was quantified as previously described. Initial reaction velocity data were obtained from the linear portion of the oxygen uptake curves. Oxygraph data were analyzed by nonlinear regression with Enzyme Kinetics 1.5 software (Trinity Software, Campton, N.H.).

[4] = substrate: CCCCC/C=C\C/C=C\C/C=C\C/C=C\CCCC(=O)O; test: as above; assay type: biochemical, murine; settings: other: 50 nM COX-2, 100 mM Tris-HCl, 500 μM phenol
Protocol: as §1

CCCCC/C=C\C/C=C\C/C=C\C/C=C\CCCC(=O)NCCCC(=O)O [δ-arachidonyl aminobutuyic acid]
analgesia [1]: induce analgesia
formalin-induced tonic inflammatory pain [2]: suppresses formalin-induced tonic inflammatory pain

CCCCC/C=C\C/C=C\C/C=C\C/C=C\CCCC(=O)OC(CO)CO [2-AG, 2-arachidonlyglycerol]
metabolism by COX-1 (ovine COX-1 (oCOX-1)): much lesser extent than AA

CCCCC/C=C\C/C=C\C/C=C\C/C=C\CCCC(=O)NCCO [AEA, arachidonyl ethanolamide]
metabolism by COX-1 (ovine COX-1 (oCOX-1)): much lesser extent than AA

B1: Murine COX-2 (Mus musculus) (protein)
chain: ANPCCSNPCQNRGECMSTGFDQYKCDCTRTGFYGENCTTPEFLTRIKLLLKPTPNTVHYILTHFKGVWNIVNNIPFLRSLIMKYVLTSRSYLIDSPPTYNVHYGYKSWEAFSNLSYYTRALPPVADDCPTPMGVKGNKELPDSKEVLEKVLLRREFIPDPQGSNMMFAFFAQHFTHQFFKTDHKRGPGFTRGLGHGVDLNHIYGETLDRQHKLRLFKDGKLKYQVIGGEVYPPTVKDTQVEMIYPPHIPENLQFAVGQEVFGLVPGLMMYATIWLREHNRVCDILKQEHPEWGDEQLFQTSRLILIGETIKIVIEDYVQHLSGYHFKLKFDPELLFNQQFQYQNRIASEFNTLYHWHPLLPDTFNIEDQEYSFKQFLYNNSILLEHGLTQFVESFTRQIAGRVAGGRNVPIAVQAVAKASIDQSREMKYQSLNEYRKRFSLKPYTSFEELTGEKEMAAELKALYSDIDVMELYPALLVEKPRPDAIFGETMVELGAPFSLKGLMGNPICSPQYWKPSTFGGEVGFKIINTASIQSLICNNVKGCPFTSFNVQDPQPTKTATINASASHSRLDDINPTVLIKRRSTEL
notes: made in house; host or cells: Sf-9 insect cells
Km [3]: 11.7 ± 1.4 µM
kcat [3]: 6.3 ± 1.1 s⁻¹
kcat/Km [3]: 540000 M⁻¹ s⁻¹
Km [4]: 3.3 ± 1.0 µM
kcat [4]: 16.6 ± 1.7 s⁻¹
kcat/Km [4]: 5.08e+06 M⁻¹ s⁻¹
